The values that follow come from the supplement of paper PMC12042874.

± gives the uncertainty stated by the source.

The series can be described thus: amyloid nucleation score (Sup35N fusion, yeast selection) (log enrichment); library NNK3; higher = more nucleation; inactive = no reads after selection. The procedure, abridged: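 The nucleation score is the DiMSum log enrichment of output over input reads, centred on the mode score of non-aggregating sequences. Only sequences with 100 or more input reads were scored, using Illumina sequencing of input and output plasmid inserts. Psi-negative yeast expressing Sup35N fused to peptides of 20 random codons were induced 24 hours with 100 μM copper sulfate and grown 7 days at 30°C on medium lacking adenine and uracil.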
Consider QKLVMTYPVIVHNMVNLERY, for which the amyloid nucleation score is 1.13 ± 0.074.
To LMASWTVRTYHGFSISENRN belongs 0.312 ± 0.26.
To EFMSSVGIYMEIDCTLGVCD belongs “inactive”; to FGRQVSDGVASFMSNTSLYR, “inactive”; to IMCRLMSKVYTMPQYEILSF, “inactive”.
To KWVKPRVVTQKR belongs “inactive”; to YGRDQSRYYLYSSMGEV, 0.148 ± 0.72.
In the case of IYILYVMDF, the amyloid nucleation score entry is “inactive”.
To VWGLKFTRFVNTQLRRYPTL belongs “inactive”; to ELRLMGFRGALDACLSLHPI, “inactive”; to RLSLDRRNVRPDDMVHASGG, “inactive”.
As for SVYCYEAS, the amyloid nucleation score entry is “inactive”.
To GRHVLGCVDITTGARSLPRM belongs “inactive”; to KNLRVLGSSLIGLTLIECHG, -0.801 ± 1.1; to NVSYLGEVWYKFRLCVVCSR, 0.159 ± 0.27.
Under RSVSNVFRLCLDAWGKVRRH stands “inactive”; under KNLDKLVKMYH, “inactive”; under LYYMKVIGTFRISEAILLYL, “inactive”.
To LGVCVWQCLGMSIVNALKRL belongs “inactive”; to LIASGASIVFSRTESVRCNT, “inactive”.
Turning to GYWWELSSKVNVCAMMHRPW, the amyloid nucleation score entry was “inactive”.
Under IRSNGTFTPWEPLSVIWCTK stands “inactive”; under AYSVYVFALYRLNFYVLLRN, “inactive”; under CLSSSINMTMVYCCNSLMFG, 2.13 ± 0.069.
To IYSIKSV belongs -0.357 ± 0.68; to PYFFTDLICSFKIGAYEQGS, “inactive”; to NGLGSTRMNQGHKLVFTNSI, “inactive”.
To SNITAVYAVVTNIRWLYVRT belongs “inactive”; to LHRLMLTRCVPGFV, -0.443 ± 0.98.
In the case of PRDCS, the amyloid nucleation score entry was “inactive”.
FSVYVAG: the amyloid nucleation score entry is “inactive”.
To SFTIIMALCSV belongs “inactive”; to VSSKDGLFCCL, 0.209 ± 0.66; to CEMGFLEPL, “inactive”.
To HGGCC belongs “inactive”.
For the substance PVLGYAECIYKMYKSSQVSW, the amyloid nucleation score entry is “inactive”.
To VPGRVMVLRIWIYRNVQKRG belongs “inactive”; to CRACGRWCNSSYIYIY, “inactive”.
Under NMVNAIFSAVGLQGFRLFPR stands “inactive”; under FGILSDIVCSTVVKNCDL, “inactive”; under ISESN, “inactive”.
AYSYAYGHCRYGSEVS: the amyloid nucleation score entry is “inactive”.
Under FGVTTEF stands 1.23 ± 0.14; under GSISIVVQM, 2.2 ± 0.075.
On to HSRWMAFPWMLGPLLLNRNL, for which the amyloid nucleation score result is “inactive”.
To RVMAMYIGV belongs “inactive”; to TYFYSIIYYIYGYVFLRRAY, -0.346 ± 0.8.
Consider VYFPTWFTLVFSPSKFWICI, for which the amyloid nucleation score entry was “inactive”.
Under ISCPLYQGMGHLIH stands “inactive”; under GYVPMYVCLSPYHKTVLWLS, 0.447 ± 0.2.
To WVMCFVAWCSAFLRTNFIDM belongs “inactive”.
Under KPQYENVMCY stands “inactive”; under VGTGVM, “inactive”; under DWGTASSSTVGFEQSSDKVF, “inactive”.
With SNHITRFQLESQTIPIISFV, the amyloid nucleation score entry is “inactive”.
To YRAIVSHNAMTPV belongs “inactive”; to CNLDLVANT, “inactive”.
Take QSFGMFAVYRAWVSIL: the amyloid nucleation score entry was “inactive”.
Under TRVSWTFGINTSSGPSALHL stands 0.995 ± 0.13.
TCLLFVTHFNWYNTLVEGTI displayed an amyloid nucleation score of 0.989 ± 0.15.
Under TVVVGLVGF stands 0.825 ± 0.2; under RVSSFMSLTVGRYGKLHRDS, “inactive”; under NTYRMMKGLSPVFMKMLCTP, “inactive”.
Take LWPWFNCLRGRCGRIVCGWR: the amyloid nucleation score result is “inactive”.
To WNVPGVHCCIWVTRWEMGPT belongs 2.72 ± 0.078; to VTCCARTYYSWP, “inactive”; to DLSPRYL, “inactive”.
To IYDCNRDIGDVLTSSDPPHA belongs “inactive”; to FNVRWGWLGDLIYGGFLHVG, “inactive”; to VSSAMYYLFKGLAETLRYSS, “inactive”.
To YSYRVRTSFVENRKCA belongs “inactive”; to NMRCSIHARGSRHGVRDDTQ, “inactive”; to YVSLCTTPVGERTSYSCDIH, “inactive”.
Take KYGFAVRPFDTGSRMSHFCW: the amyloid nucleation score entry is “inactive”.
Under CHDLLHVVIEIPVCFLCTKG stands 0.807 ± 0.18; under TVLLIGNMWTYWAYMQCSWG, “inactive”; under SFLDNCPRGNRGQVGSEPVS, “inactive”.
To LRGCVNAYLRYHTRGLVVLR belongs “inactive”.
Under SRCFNSGTYPEICVHRVLKV stands “inactive”; under NVALVRTGVIHWSYSVISRV, “inactive”; under HVVFNIIFWYSGRIGLSDIT, 1.94 ± 0.084.
In the case of SKFCSGSLFMIRCILGSRYL, the amyloid nucleation score entry is “inactive”.
Under NLLAMRLWQAQSMKRSLGFL stands “inactive”; under KSDPPGTVLYYTLAQPLYLL, “inactive”.
To LCKIRECHCNLYHRVYMGWN belongs “inactive”.
Take TMVYPKIPGGRTLAWDMTGR: the amyloid nucleation score entry is “inactive”.
Under VINRHVCGRVGMLTGFDGLT stands “inactive”; under NKLCYSSDLYWRVTDKDEHR, “inactive”; under HITVNRSKGFDGSRTAPFQM, “inactive”.
On to VCFNYDLFYMIRMGFEAVHI, for which the amyloid nucleation score result is “inactive”.
On to LLWCGFQDCEMKC, for which the amyloid nucleation score entry was “inactive”.
To SLVAFPLFAGCVIW belongs “inactive”; to CFIWMSYGVPLNCNCLPQRP, “inactive”; to MFLFFHVFKDFQIHRDLQDW, 0.08 ± 0.59.
TWQVVNSPYPMRNIPYRSRW: the amyloid nucleation score entry is “inactive”.
As for GRLLRTMVD, the amyloid nucleation score entry was “inactive”.
To IKVSECMSAYIVVFWYRMVV belongs “inactive”.
Under YLNSYQDIYVRCVLELLYSS stands “inactive”; under RNTMSFNDSFTNALLLKSVG, “inactive”; under FWWKSYFFNLKV, “inactive”.
In the case of TYRSTLSVSMAVRGSEMLD, the amyloid nucleation score was -0.085 ± 1.
Under YQRLHSL stands “inactive”.
For the substance FDGNFGWARRVNAGDSLFMF, the amyloid nucleation score entry is “inactive”.
Under EFCIRRIM stands “inactive”; under RLQMRSATLYCEGGSGAILY, “inactive”.
Under ELSTMIKSSCPPLIDRWLFP stands “inactive”; under PPFYMCFYLFVGLRNSMGWL, “inactive”; under CVRTGWIIMDSNKLD, “inactive”.
Under TSMRKSACSWTLFSLR stands “inactive”; under VGNLCVLKGTTIMFGIMGST, 1.18 ± 0.14; under RILTDGIIVLFL, “inactive”.
As to KMDLTGWTI, the amyloid nucleation score result was “inactive”.
Under NNFRVNVHIIALVPECYFRL stands 2.44 ± 0.077.
To ISPSYVQSDQFIGRTHVS belongs “inactive”; to GSTYTVGSAGSSMTTRDLDM, “inactive”; to LTNTLAYTVRKKTFQIGLLC, “inactive”.
To VYTRLVYIYQGVFCRIFSAC belongs 1.86 ± 0.094; to ARSDGLF, “inactive”.
For the substance MSYSFKAISAHNKQSVNNVW, the amyloid nucleation score entry is “inactive”.
To RIEYVVPITPM belongs “inactive”.
Consider STQTGASRRENSPMGLGYNS, for which the amyloid nucleation score entry was “inactive”.
Under VQLGAD stands “inactive”; under EHVKRVRIWNSVNLVIEYMA, 0.635 ± 0.19.
To CALHRAGRTLVCFIYIFSGM belongs “inactive”; to GDSGPDKKWHFTKY, “inactive”.
Under YRMNDGNDGICMVWLRNSAY stands “inactive”; under RPSSLIYFSSPNTRHGSPTL, “inactive”; under IFHGSLYGFHYEPCLQAWAA, “inactive”.
As to VHFKCLRRCVGVIDRCINRH, the amyloid nucleation score entry was “inactive”.
Under FPQFLSIAGPKPHCKN stands “inactive”.
